# B1: LINE1-mini (parent)
# chain: GGCAGAGCUCAACACAGCGUGGCAAAGUGGCUGUGGCUAGACUGCC
# Variants of: B1
# Assay: self-cleavage, relative activity (ratio to wild type); higher = more cleavage; in vitro, sequencing; the parent is a self-cleaving ribozyme
row,Variant,self-cleavage
1,U9G C18A,0.07
2,A14U U34G,0.75
3,A4U U20A,0.12
4,A16U C45U,0.11
5,A14G C18G,0.21
6,C10G G29A,0.1
7,C3U C46G,0.37
8,G27C A41C,0.03
9,A4G A26U,0.39
10,A11U G27U,0.13
11,A11U G27A,0.16
12,A12G U28C,0.02
13,G7A C18A,0.07
14,G2C G40A,0.09
15,G7A C8G,0.17
16,G30U C31U,0.07
17,C3G C13G,0.55
18,C13G C23U,0.46
19,G1C A4G,0.07
20,G27C G29C,0.37
21,A6C G19U,0.56
22,G19C C46U,1.42
23,C31U C37U,0.07
24,A12U G29A,0.31

row,Variant,self-cleavage
1,C10G U28G,0.08
2,G2C C31G,0.06
3,G30U G36A,0.19
4,A11C A26G,0.05
5,U32G G33A,0.08
6,U20G G27C,0.38
7,A11U U20C,0.07
8,G35U U43G,0.07
9,A4U C37G,0.08
10,U38A G40C,0.09
11,G21A C45U,2.04
12,U28A A41G,0.3
13,C8A A11C,0.05
14,G21C C46A,1.13
15,C3U A41U,0.56
16,U9A C13U,0.29
17,C8U U28G,0.13
18,C8G A41G,0.13
19,G1C A24G,0.29
20,G1C C45A,0.16
21,G21U G36A,0.27
22,A41U C42A,0.09
23,A39G C42A,0.09
24,C8U U43C,0.16

row,Variant,self-cleavage
1,A12G A41C,0.02
2,G7U G19A,0.07
3,G17C G29A,0.12
4,G22A U34G,0.51
5,G22A U34A,0.2
6,C8A U43C,0.17
7,G35C A39G,0.09
8,G19A U34C,0.43
9,G21A C37U,0.07
10,A12C A24G,0.04
11,U9G G17U,0.08
12,C15G G30U,0.03
13,A26U G29A,1.35
14,A12U U34C,0.03
15,G29U C45U,1.99
16,G17U G19C,1.08
17,C10U C37U,0.02
18,G2C C18G,0.05
19,C15G U28C,0.04
20,U20G A25C,0.19
21,U28A U34G,0.11
22,A25U G29A,0.79
23,A24G C37G,0.1
24,C3U A39U,0.38

row,Variant,self-cleavage
1,C18A G44U,0.08
2,C15U A25U,0.77
3,U9C U43C,0.02
4,C3A G44U,2.11
5,A16U U20C,0.26
6,C3G A4U,0.36
7,A6C A26G,0.65
8,G30C C45A,0.33
9,C8G G17U,0.07
10,A41C G44A,0.05
11,U38C G44U,0.27
12,A6G C31A,0.07
13,C3U U32A,0.07
14,G19U C42U,0.3
15,G19U A25U,0.67
16,C15G A16G,0.05
17,U20G G36U,0.07
18,C3U G21A,1.19
19,C15G C18G,0.05
20,C42U C45A,0.14
21,G7C G21A,0.2
22,G29C C42A,0.1
23,A14U A41C,0.06
24,A24U A39U,1.99

row,Variant,self-cleavage
1,U9A C45G,0.32
2,G1A C46U,2.95
3,A12U A14C,0.05
4,G5C U34G,0.06
5,G17A U34C,0.06
6,A4U G35A,0.14
7,C8A C13U,0.9
8,C10U A25G,0.39
9,G27C C31G,0.05
10,A4U A16G,0.12
11,A24C U28C,0.69
12,G29C U43A,0.03
13,C13U A16U,0.13
14,G5A A26C,0.18
15,G7U A14C,0.09
16,A12G A16U,0.05
17,C23U A25C,0.86
18,G44A C46A,0.08
19,C23U A26G,0.88
20,A25C C37U,0.06
21,C18G G33C,0.03
22,C31A C42U,0.05
23,G1U A16C,0.08
24,U32G G40U,0.11

row,Variant,self-cleavage
1,A4C G30A,0.24
2,C15U G29C,1.59
3,G19C U43C,0.03
4,G36U G44U,0.09
5,A26U G30C,1.31
6,A6U G22A,0.57
7,C23A A39G,0.08
8,C3G G36U,0.2
9,C18U U32C,0.16
10,A4C C23A,0.25
11,A4C C15A,0.1
12,C3G C45U,0.33
13,C8A G40C,0.22
14,A41G U43A,0.05
15,C8A A41U,0.48
16,G2A C8A,0.61
17,G5U C42A,0.38
18,A4U G33U,0.12
19,C10U G30U,0.59
20,A16C C31A,0.08
21,G27C U43A,0.09
22,U28A G29A,0.6
23,A24C U32G,0.13
24,G1A G29U,1.1

row,Variant,self-cleavage
1,C13G A26U,0.19
2,C8U G30U,0.29
3,G1C G30A,0.18
4,C8G G22U,0.09
5,C10U A11U,0.09
6,C45U C46A,0.63
7,C10U G35C,0.04
8,G17A G22U,0.54
9,A25C C31G,0.06
10,U34A U43G,0.04
11,U43G C45G,0.09
12,C42A C46U,0.19
13,C3A A39C,0.11
14,G7C G27C,0.06
15,C8U,0.29
16,A11U A25G,0.07
17,A4G A12U,0.11
18,A12U A24G,0.39
19,G19C G44C,0.12
20,A11G U43A,0.01
21,C13A A14U,0.12
22,C13A A14G,0.08
23,G5U A39G,0.04

# Reference: the RNAGym collection of RNA variant scans (doi:10.7554/elife.90254)
